Measurements reported in FireProtDB.

B1: DNA-binding protein HU 1, P08821 (parent)
chain: MNKTELINAVAEASELSKKDATKAVDSVFDTILDALKNGDKIQLIGFGNFEVRERSARKGRNPQTGEEIEIPASKVPAFKPGKALKDAVAGK
B2: Pyrrolidone-carboxylate peptidase, O73944 (parent)
chain: MKVLVTGFEPFGGEKINPTERIAKDLDGIKIGDAQVFGRVLPVVFGKAKEVLEKTLEEIKPDIAIHVGLAPGRSAISIERIAVNAIDARIPDNEGKKIEDEPIVPGAPTAYFSTLPIKKIMKKLHERGIPAYISNSAGLYLCNYVMYLSLHHSATKGYPKMSGFIHVPYIPEQIIDKIGKGQVPPSMCYEMELEAVKVAIEVALEELL
B3: E81Q, P95467 (parent)
chain: MKKALIASTALLLTAGVAAADVKISGYGRTGVIYYENDSDVNESRVQSRLRMNIDASSSTDSGVDFGARFRLQWDQGEEGEAQTNAGKLWVSAQGFTVEVGNVDTAFASNGLIYETGLGSYDRSVGFSAVTGAFFAYDSNGYGIDEVDRVGIRALYTLGDLTLQASYVDPDQSGTVIGVEEEFGFSVDYTWNERLELSAAAAFNGAGIDGNDIYFLGARYAVMDNARIGLNFVDAGDEEDGYDGKTIALYGDYTLADGRTNLEAYIANNDRDSNETDNAFGIGVNYDLGGARLGASLQRDYAENVTADFGVRFEF
B4: 3-isopropylmalate dehydrogenase, P05645 (parent)
chain: MKKRIALLPGDGIGPEVLESATDVLKSVAERFNHEFEFEYGLIGGAAIDEHHNPLPEETVAACKNADAILLGAVGGPKWDQNPSELRPEKGLLSIRKQLDLFANLRPVKVFESLSDASPLKKEYIDNVDFVIVRELTGGLYFGQPSKRYVNTEGEQEAVDTLFYKRTEIERVIREGFKMAAARKGKVTSVDKANVLESSRLWREVAEDVAQEFPDVKLEHMLVDNAAMQLIYAPNQFDVVVTENMFGDILSDEASMLTGSLGMLPSASLSSSGLHLFEPVHGSAPDIAGKGMANPFAAILSAAMLLRTSFGLEEEAKAVEDAVNKVLASGKRTRDLARSEEFSSTQAITEEVKAAIMSENTISNV
B5: Decorsin, P17350 (parent)
chain: APRLPQCQGDDQEKCLCNKDECPPGQCRFPRGDADPYCE
B6: Penicillolysin, P47189 (parent)
chain: MRFTTLSTAFLALAQNVYAFPIESDLSALDVTLSQVSDTRIKAVVKNTGAENVTFVHLNFFRDSAPVKKVSVYRENNEVVFDGIKRRFQLQGLASESLTTLEAGEVLEDEFDIATTTDLSSGGAITLRSNGLVPVVKDGAVTGYLPYSSNDLKLNIDGAKASTVTKALKPLDRRTKETCSNASRKSALEKALSNTVKLANAAATAARSGSASKFSEYFKTTSSSTRSVVAARLEAVAKEAQSASSGSTTYYCSDTLGYCETNVLAYTLPARNIIANCDIYYSYLPALAGTCHQQDQATTTLHEFTHAPGVYSPGTDDLGYGYSAATSLSSSQAVLNADSYALYANAINLGC
B7: Ornithine carbamoyltransferase subunit I, P04391 (parent)
chain: MSGFYHKHFLKLLDFTPAELNSLLQLAAKLKADKKSGKEEAKLTGKNIALIFEKDSTRTRCSFEVAAYDQGARVTYLGPSGSQIGHKESIKDTARVLGRMYDGIQYRGYGQEIVETLAEYASVPVWNGLTNEFHPTQLLADLLTMQEHLPGKAFNEMTLVYAGDARNNMGNSMLEAAALTGLDLRLVAPQACWPEAALVTECRALAQQNGGNITLTEDVAKGVEGADFIYTDVWVSMGEAKEKWAERIALLREYQVNSKMMQLTGNPEVKFLHCLPAFHDDQTTLGKKMAEEFGLHGGMEVTDEVFESAASIVFDQAENRMHTIKAVMVATLSK
B8: Tissue-type plasminogen activator, P00750 (parent)
chain: MDAMKRGLCCVLLLCGAVFVSPSQEIHARFRRGARSYQVICRDEKTQMIYQQHQSWLRPVLRSNRVEYCWCNSGRAQCHSVPVKSCSEPRCFNGGTCQQALYFSDFVCQCPEGFAGKCCEIDTRATCYEDQGISYRGTWSTAESGAECTNWNSSALAQKPYSGRRPDAIRLGLGNHNYCRNPDRDSKPWCYVFKAGKYSSEFCSTPACSEGNSDCYFGNGSAYRGTHSLTESGASCLPWNSMILIGKVYTAQNPSAQALGLGKHNYCRNPDGDAKPWCHVLKNRRLTWEYCDVPSCSTCGLRQYSQPQFRIKGGLFADIASHPWQAAIFAKHRRSPGERFLCGGILISSCWILSAAHCFQERFPPHHLTVILGRTYRVVPGEEEQKFEVEKYIVHKEFDDDTYDNDIALLQLKSDSSRCAQESSVVRTVCLPPADLQLPDWTECELSGYGKHEALSPFYSERLKEAHVRLYPSSRCTSQHLLNRTVTDNMLCAGDTRSGGPQANLHDACQGDSGGPLVCLNDGRMTLVGIISWGLGCGQKDVPGVYTKVTNYLDWIRDNMRP
B9: Cocaine esterase, Q9L9D7 (parent)
chain: MVDGNYSVASNVMVPMRDGVRLAVDLYRPDADGPVPVLLVRNPYDKFDVFAWSTQSTNWLEFVRDGYAVVIQDTRGLFASEGEFVPHVDDEADAEDTLSWILEQAWCDGNVGMFGVSYLGVTQWQAAVSGVGGLKAIAPSMASADLYRAPWYGPGGALSVEALLGWSALIGTGLITSRSDARPEDAADFVQLAAILNDVAGAASVTPLAEQPLLGRLIPWVIDQVVDHPDNDESWQSISLFERLGGLATPALITAGWYDGFVGESLRTFVAVKDNADARLVVGPWSHSNLTGRNADRKFGIAATYPIQEATTMHKAFFDRHLRGETDALAGVPKVRLFVMGIDEWRDETDWPLPDTAYTPFYLGGSGAANTSTGGGTLSTSISGTESADTYLYDPADPVPSLGGTLLFHNGDNGPADQRPIHDRDDVLCYSTEVLTDPVEVTGTVSARLFVSSSAVDTDFTAKLVDVFPDGRAIALCDGIVRMRYRETLVNPTLIEAGEIYEVAIDMLATSNVFLPGHRIMVQVSSSNFPKYDRNSNTGGVIAREQLEEMCTAVNRIHRGPEHPSHIVLPIIKR

Variants of: B1
Details: Bacillus subtilis (strain 168); pH 7.5; 20 °C; Thermal; CD; Tris/HCl 5 mM; reversible: yes; whole UniProt chain shown

Row | Variant | unfolding free energy [kcal/mol]
1 | F50W | 8.61
2 | F79W | 9.57

Variants of: B2
Details: Pyrococcus furiosus (strain ATCC 43587 / DSM 3638 / JCM 8422 / Vc1); pH 7; 60 °C; GdnHCl; CD; Tris-HCl 20 mM; reversible: yes; structure 1IOF; whole UniProt chain shown

Row | Variant | denaturant m value [kcal/mol/M] | denaturant midpoint (higher = more stable) [M] | unfolding free energy [kcal/mol]
3 | C142S C188S | 4.16 | 3.4 | 13.5

Variants of: B3
Details: Paracoccus denitrificans; pH 8; Thermal; Absorbance; Tris-HCl 50 mM; NaCl 100 mM; reversible: no; whole UniProt chain shown

Row | Variant | Tm [°C] | change of melting temperature, mutant - wild type (higher = more stable) [°C]
4 | E81Q | 84.2 | -2
5 | E81Q D148N | 82.3 | -3.9
6 | W74C | 82.4 | -3.8

Variants of: B4
Details: Bacillus subtilis (strain 168); pH 7.6; Thermal; CD; Potassium phosphate 20 mM; reversible: yes; whole UniProt chain shown

Row | Variant | Tm [°C]
7 | I95L M292I T308I | 70
8 | I95L T308I | 66

Same assay, conditions: Bacillus subtilis (strain 168); pH 7.6; Thermal; CD; potassium phosphate 20 mM; reversible: No; whole UniProt chain shown

Row | Variant | change of melting temperature, mutant - wild type (higher = more stable) [°C]
9 | M256I | 0
10 | M256F | -12.5
11 | M256L | 0
12 | M256A | 7
13 | M256V | 2.5

Variants of: B5
Details: Macrobdella decora; pH 7; Thermal; CD; Na2HPO4 10 mM; reversible: Yes; structure 1DEC; whole UniProt chain shown

Row | Variant | Tm [°C] | change of melting temperature, mutant - wild type (higher = more stable) [°C]
14 | P24A | 66.5 | -7.5
15 | P23A P24A | 50 | -24
16 | P23A | 66.5 | -7.5

Variants of: B6
Details: Penicillium citrinum; pH 5; Thermal; CD; sodium acetate 10 mM; reversible: no; whole UniProt chain shown

Row | Variant | Tm [°C] | change of melting temperature, mutant - wild type (higher = more stable) [°C]
17 | T255P | 71 | 3
18 | A341E | 70 | 2
19 | R207E E234R | 70 | 2

Variants of: B7
Details: Escherichia coli (strain K12); pH 8.3; Thermal; DSC; borate 40 mM; structure 1AKM; whole UniProt chain shown

Row | Variant | Tm [°C] | unfolding enthalpy (calorimetric) [kcal/mol]
20 | K87Q | 69.7 | 690
21 | R320A | 69.6 | 710
22 | A326G | 63 | 660

Variants of: B8
Details: Homo sapiens; pH 4.5; Thermal; CD; Unknown; structure 1PK2; whole UniProt chain shown

Row | Variant | unfolding free energy [kcal/mol]
23 | H264Y | 2.9
24 | H264Y R268G | 3.4

Same assay, conditions: Homo sapiens; pH 7.4; Thermal; DSC; sodium Phosphate 10 mM; structure 1PML; whole UniProt chain shown

Row | Variant | Tm [°C] | change of melting temperature, mutant - wild type (higher = more stable) [°C] | unfolding enthalpy (calorimetric) [kcal/mol]
25 | W277Y | 63.3 | -12.3 | 45
26 | W277H | 56.6 | -19 | 56
27 | W277F | 58.5 | -17.1 | 40

Variants of: B9
Details: Rhodococcus sp. (strain MB1 Bresler); pH 8; Thermal; Fluorescence; Tris 50 mM; structure 1JU3; whole UniProt chain shown

Row | Variant | Tm [°C] | change of melting temperature, mutant - wild type (higher = more stable) [°C]
28 | G173Q | 37.7 | 2.97
29 | T172R G173Q | 41.2 | 6.41
30 | L169K | 41.1 | 6.3
